Reference: PMC5938747

Test system: Nc1ccn([C@@H]2O[C@H](COP(=O)(O)OP(=O)(O)O)[C@@H](O)[C@H]2O)c(=O)n1
Test: purified protein
Conditions: 10 mM ATP, MgCl2 4 mM excess, pH 8.0, 25 °C

Which Km does the source give for “Cj1415 (cytidine diphosphoramidate kinase, CDK) (Campylobacter jejuni subsp. jejuni NCTC 11168 = ATCC 700819)” here?
The Km was 4.2 ± 0.7 mM.

What about the kcat of the same substance?
The kcat was 0.64 ± 0.04 s⁻¹.
